This note sets out measurements from patent publication US10829545 (MIT, dated 2020).

The labels stand for the following.
B1: fusion loop targeting pan-flavivirus antibody (4G2) (antibody, V domains shown)
VH: EVQLQQSGPELVKPGTSVKISCKTSGYTFTEYTIHWVKQSHGKSLAWIGGIDPNSGGTNYSPNFKGKATLTVDKSSSTAYMDLRSLSSEDSAVYFCARIYHYDGYFDVWGAGTAVTVSS
VL: DIKMTQSPSSMYASLGERVTITCKASQDINSYLTWFQQKPGKSPKTLIYRANRLIDGVPSRFSGSGSGQDYSLTISSLDYEDMGIYYCLQYDEFPPTFGGGTKLEIKR
B2: mAb 7 (antibody, V domains shown)
VH: EVQLLESGGGLVQPGGSLRLSCAASGFSFSTYSMHWVRQAPGKGLEWVSAISGEGDSAYYADSVKGRFEISRDNSKNTLYLQMNKVRAEDTAVYYCVGGYSNFYYYYTMDAWGQGTMVTVSS
VL: DIVMTQSPASLSLSPGERATLSCRATQSIVTFLAWYQQKPGQAPRLLIYDASTNASGIPARFSGSRSGTDFTLTITRLEPEDFAVYYCQQRYNWPPYSFGQGTKLEIK
notes: also called VH.2 / VL.4
B3: mAb 6 (antibody, V domains shown)
VH: EVQLVESGGGLVQPGGSLRLSCSASGFSFSTYSMHWVRQAPGKGLEYVSAITGEGDSAFYADSVKGRFTISRDNSKNTLYFEMNSLRPEDTAVYYCVGGYSNFYYYYTMDAWGQGTSVTVSS
VL: B2 VL with D1E, M4L, V30S, Q38H, N54R, I58V, T76S, R77S, L105V
notes: also called VH.3 / VL.1
B4: mAb 8 (antibody, V domains shown)
VH: B2 VH with E69T
VL: B2 VL with V30S, N54R
notes: also called VH.1 / VL.2

Where a chain is given by its changes, count along the chain named.

The first experiment deals with T1, Zika virus envelope protein (EP), strain ILM (Brazil Paraiba 2015), on whole virus (Zika virus).
T1 construct: also called Zika strain ILM
Assay: not given
Usually Kd stands for the constant that tells how readily two partners part at equilibrium. Low values mean a tighter complex, high ones a looser complex. The molecule B1 showed a Kd of 6.41 µg/mL.

Molecule B2 registered a Kd of 5.21 µg/mL.

Consider B3, for which the Kd was determined as 3.85 µg/mL.

Regarding B4, the Kd was 19.3 µg/mL.

In the next experiment the target is T1, Zika virus envelope protein (EP), …. The experiment can be described thus: cell-based or functional assay.
With B3, the “PRNT50 (plaque reduction neutralization test on BHK-21 cells)” value came to 0.0597 µg/mL.

On to B4, for which the “PRNT50 (plaque reduction neutralization test on BHK-21 cells)” value is 5.12 µg/mL.
